Like-named read-outs stand apart in the source and are kept apart here.
B1: anti-CI-M6PR VHH7 (VHH)
VHH: QVQLQESGGGLVQPGGSLRLSCAASGIIFSDNRMDWYRQAPGKQREWVATLASYGWKTYADSVKGRFTISRDNTKNTVYLRMNSLKPEDTAVYYCKASSPVLNDIWGQGTQVTVSS
notes: Purified by IMAC, so tagged; Labelled with Alexa Fluor 488 (NHS ester) in the imaging experiments
B2: anti-CI-M6PR VHH 1H11 (VHH)
VHH: QVQLQESGGGLVQPGGSLRLSCAASGIIFSDNRMDWYRQAPGKQREWVATLASYGWKTYADSVKDRFTISRDNAKNTVNLYMNSLQPEDTAVYYCNSGQYWGQGTQVTVSS
notes: Made in E. coli (pHEN6c), IMAC purified; tag not specified
B3: anti-CI-M6PR VHH8 (VHH)
VHH: QVQLQESGGGLVQAGGSLRLSCEASGRTFNTYNWGWFRQAPGKEREFVAAIRWSSSKTSYADSVKGRFTISRDNAKNTIYLQMNSLKPEDTAVYYCAASIVDFTTNPSHFGSWGQGTQVTVSS
notes: as for B1
B4: anti-CI-M6PR VHH 1H52 (VHH)
VHH: QVQLQESGGGLVQPGGSLRLSCTASGFTWDSYVIGWFRQAPGKGREGVSCLDVDDGSIYYHDSAKGRFSISRDNAKNTVYLQMNSLKPEDTAVYYCAAVNRASMRFRRCLQVLRYDYWGQGTQVTVSS
notes: as for B2

How the values were obtained:
[1] = target: T1, human CI-M6PR domain1-3His6 (human, UniProt P11717 41-467); assay: BLI, association pH 7.4, dissociation at pH 6.0, mean of local fits
T1 construct: Recombinant, made in HEK293 cells; Biotinylated with NHS-PEG4-biotin for BLI; unlabelled in SEC-MALLS and crystallisation; also called CI-M6PR hDom1-3His6; hDom1-3His6
Protocol: (§1) FIGS. 9A-9E. […] BLI was performed on an Octet Red96 (FortéBio) instrument in kinetics buffer (0.2 M Na₂HPO₄, 0.1 M Na⁺citrate, 0.01% bovine serum albumin, 0.002% Tween-20). Biotinylated human domain₁₋₃His₆ was immobilized on Streptavidin SA biosensors (Sartorius) to a signal of 0.6 nm. […] Between runs, biosensors were regenerated by three times 10 s exposure to regeneration buffer (10 mM glycine pH 3). The degree of association and dissociation was measured in δ nm over time(s).
as §1, with “10A-10E.” for “9A-9E.”, “assays,” for “runs,”

[2] = target: T1, human CI-M6PR domain1-3His6; assay: BLI, association pH 7.4, dissociation at pH 5.5, mean of local fits
Protocol: as §1
as §1, with “10A-10E.” for “9A-9E.”, “assays,” for “runs,”

[3] = target: T1, human CI-M6PR domain1-3His6; assay: not stated in the sentence (pH-dependent dissociation)
[4] = target: T1, human CI-M6PR domain1-3His6; assay: BLI, association pH 7.4, dissociation at pH 5.0, mean of local fits
Protocol: as §1
as §1, with “10A-10E.” for “9A-9E.”, “assays,” for “runs,”

[5] = target: T1, human CI-M6PR domain1-3His6; assay: BLI, association pH 7.4, dissociation at pH 6.5, mean of local fits
Protocol: as §1
as §1, with “10A-10E.” for “9A-9E.”, “assays,” for “runs,”

[6] = target: T1, human CI-M6PR domain1-3His6; assay: BLI, biotinylated antigen on SA tips, global 1:1 fit, association at pH 7.4
Protocol: (§2) Biotinylated human domain₁₋₃His₆ was immobilized on Streptavidin SA biosensors (Sartorius) to a signal of 0.6 nm. […] Between runs, biosensors were regenerated by three times 10 s exposure to regeneration buffer (10 mM glycine pH 3). The degree of association and dissociation was measured in δ nm over time(s).
as §1, with “10A-10E.” for “9A-9E.”, “assays,” for “runs,”
(§3) After loading, the tips were incubated with VHHs serially diluted in pH 7.4 kinetic buffer during the association phase and dissociation was performed at pH 7.4, pH 6.5, pH 6.0, pH 5.5 and pH 5.0. All biosensor tips were then regenerated before analysis of the subsequent VHH. Table 3 summarizes the kinetic parameters retrieved after processing and curve fitting of the BLI measurements.

[7] = target: T1, human CI-M6PR domain1-3His6; assay: BLI, biotinylated antigen on SA tips, global 1:1 fit, dissociation at pH 7.4
Protocol: as §2
as §1, with “10A-10E.” for “9A-9E.”, “assays,” for “runs,”
as §3

[8] = target: human cation-independent mannose-6-phosphate receptor on cells (human, UniProt P11717 41-2491); assay: cell-based or functional assay
[9] = target: T1, human CI-M6PR domain1-3His6; assay: BLI, association pH 7.4, dissociation at pH 6.5, mean of local fits; remark: listed apart in the source
Protocol: (§4) For VHH 1H11 (SEQ ID NO: 24) and VHH 1H52 (SEQ ID NO: 25), a BLI experiment was performed in which the human CI-M6PR domain₁₋₃His₆ was biotinylated and coupled to streptavidin biosensor tips. After loading, the tips were incubated with VHHs serially diluted in pH 7.4 kinetic buffer during the association phase and dissociation was performed at pH 7.4, pH 6.5, pH 6.0, pH 5.5 and pH 5.0. All biosensor tips were then regenerated before analysis of the subsequent VHH. […] When both association and dissociation were performed at pH 7.4, a global fit was performed according to the 1:1 binding model of which the resulting affinity constants (KD), association (kₒₙ) and dissociation rate constants (koff) are shown. For measurements with association at pH 7.4 and dissociation at pH 6.5, 6.0, 5.5 and 5.0, the depicted dissociation rate constants are an average of the parameters determined by local curve fitting of the dissociation of 200, 100 and 50 nM VHH. Association-dissociation curves for VHH1H11 and VHH1H52 are shown in FIG. 19 and FIG. 20, respectively.

[10] = target: T1, human CI-M6PR domain1-3His6; assay: BLI, biotinylated antigen on SA tips, global 1:1 fit, association at pH 7.4; remark: listed apart in the source
Protocol: as §4

[11] = target: T1, human CI-M6PR domain1-3His6; assay: BLI, association pH 7.4, dissociation at pH 6.0, mean of local fits; remark: listed apart in the source
Protocol: (§5) FIG. 19-20. Association-dissociation graphs of anti-CI-M6PR VHH1H11 and VHH1H52, resp. analyzed using BLI. BLI was performed on an Octet Red96 (FortéBio) instrument in kinetics buffer (0.2 M Na₂HPO₄, 0.1 M Na⁺citrate, 0.01% bovine serum albumin, 0.002% Tween-20). Biotinylated human domain₁₋₃His₆ was immobilized on Streptavidin SA biosensors (Sartorius) to a signal of 0.6 nm. A 120 s association phase in VHH 1H11 (FIG. 19) or VHH 1H52 (FIG. 20) serially diluted (0-200 nM) in pH 7.4 phosphate citrate buffer, was followed by 420 s of dissociation in phosphate buffer of either pH 7.4, 6.5, 6.0, 5.5 or 5.0. Between assays, biosensors were regenerated by three times 10 s exposure to regeneration buffer (10 mM glycine pH 3). The degree of association and dissociation was measured in δ nm over time(s).
(§6) For VHH 1H11 (SEQ ID NO: 24) and VHH 1H52 (SEQ ID NO: 25), a BLI experiment was performed in which the human CI-M6PR domain₁₋₃His₆ was biotinylated and coupled to streptavidin biosensor tips. […] For measurements with association at pH 7.4 and dissociation at pH 6.5, 6.0, 5.5 and 5.0, the depicted dissociation rate constants are an average of the parameters determined by local curve fitting of the dissociation of 200, 100 and 50 nM VHH. […]

[12] = target: T1, human CI-M6PR domain1-3His6; assay: BLI, association pH 7.4, dissociation at pH 5.5, mean of local fits; remark: listed apart in the source
Protocol: as §5, §6

[13] = target: T1, human CI-M6PR domain1-3His6; assay: BLI, association pH 7.4, dissociation at pH 5.0, mean of local fits; remark: listed apart in the source
Protocol: as §5, §6

[14] = target: T1, human CI-M6PR domain1-3His6; assay: BLI, biotinylated antigen on SA tips, global 1:1 fit, dissociation at pH 7.4; remark: listed apart in the source
Protocol: as §4

[15] = target: T1, human CI-M6PR domain1-3His6; assay: BLI at pH 7.4

| Binder | koff [1] [s⁻¹] | koff [2] [s⁻¹] | fold higher dissociation rate at pH 6.0 versus pH 7.4 [3] [fold] | koff [4] [s⁻¹] | koff [5] [s⁻¹] | kon [6] [M⁻¹ s⁻¹] | Kd [7] [nM] | koff [7] [s⁻¹] | internalisation rate (live-cell imaging of AF488-VHH on MCF7 cells) [8] [summed AF-voxels/minute] | koff [9] [s⁻¹] | kon [10] [M⁻¹ s⁻¹] | koff [11] [s⁻¹] | koff [12] [s⁻¹] | koff [13] [s⁻¹] | Kd [14] [nM] | koff [14] [s⁻¹] | Kd [15] [nM] |
| --- | --- | --- | --- | --- | --- | --- | --- | --- | --- | --- | --- | --- | --- | --- | --- | --- | --- |
| B1 | 0.0099 | 0.013 | 5 | 0.017 | 0.0091 | 540000 | 10.1 | 0.0055 | 1.26e+06 | – | – | – | – | – | – | – | – |
| B2 | – | – | – | – | – | – | – | – | – | 0.0048 | 510000 | 0.0051 | 0.0063 | 0.0083 | 4.9 | 0.0025 | – |
| B3 | 0.00091 | 0.0034 | – | 0.023 | 0.00084 | 610000 | 0.534 | 0.00032 | 673000 | – | – | – | – | – | – | – | ~3.35 |
| B4 | – | – | – | – | – | – | – | – | – | 0.067 | 1e+06 | 0.03 | 0.051 | 0.2 | 31 | 0.032 | – |

Reference: patent US20240327525A1 (VIB VZW, published 2024)
